These results are taken from paper PMC12007268.

In experiment [1] the target is FcRn immobilised on the FcRn affinity column Gen2 (Roche Diagnostics) (human) (UniProt P55899). The experiment is described as follows: pH-gradient FcRn affinity column chromatography; FcRn affinity column Gen2 (Roche); pH gradient; retention time and pH of elution.
The target in experiment [2] is human neonatal Fc receptor, His-tagged (hFcRn-His) (UniProt P55899). The experiment is described as follows: BLI; Octet R8; hFcRn-His (40 µg/ml) held on NTA biosensors; trastuzumab-Fc variants in PBS pH 6.0 bound for 20 s, then dissociation in PBS pH 7.4 for 5 s; initial on-rate from the first 2 s, initial off-rate from the first 1 s; values relative to trastuzumab. Background: Biolayer interferometry detects binding as a change in optical thickness at a sensor tip.

For experiment [3] the target is unchanged. In words: BLI (Octet R8). The conditions noted are these: PBS (composition not stated), PBS pH 6.0 for association, PBS pH 7.4 for dissociation; for Relative on-rate (initial association rate, normalised to trastuzumab) (fold relative to trastuzumab): pH 6.0; for Relative off-rate (initial dissociation rate, normalised to trastuzumab) (fold relative to trastuzumab): pH 7.4.

Experiment [4] shares this target. The experiment is described as follows: SPR (Biacore T200). The conditions noted are these: pH 6.0; 1× PBS (composition not stated); 1× PBST (pH 6.0). In general terms: In SPR one partner is held on a chip, and binding of the other changes the refractive index at the surface.
Experiment [5] has as its target trastuzumab (wild-type Fc) (human). In words: SPR; Biacore T200; trastuzumab-Fc variants amine-coupled to a CM5 chip (about 1,000 RU); hFcRn-His 1,000 to 62.5 nM in 1x PBST pH 6.0, 30 µl/min; 1:1 binding model (trastuzumab: steady state); triplicate.
In experiment [6] the target is trastuzumab-DHS (L309D/Q311H/N434S) (human). Described as above.
Experiment [7] addresses trastuzumab-EML (L309E/Q311M/M428L) (human). Described as above.
The target of experiment [8] is trastuzumab-PFc29 (Q311R/M428L) (human). The experiment is described as above.
For experiment [9], the target named is trastuzumab-YML (L309Y/Q311M/M428L) (human). The experiment is described as above.
The target of experiment [10] is human neonatal Fc receptor, His-tagged (hFcRn-His) (UniProt P55899).

In experiment [1], “trastuzumab-EML (L309E/Q311M/M428L) (antibody)” came in with a pH at elution from the FcRn affinity column of 7.97 pH and a retention time on the pH-gradient FcRn affinity column of 48 min. For the same substance, in [2], the average of relative on- and off-rate was 1.48 fold; the relative initial off-rate at pH 7.4 (against trastuzumab) turned out to be 1.5 fold; the relative initial on-rate at pH 6.0 (against trastuzumab) was 1.47 fold.

As for trastuzumab-PFc29 Q311R;M428L, in experiment [3], the Relative on-rate (initial association rate, normalised to trastuzumab) (fold relative to trastuzumab) was determined as 1.94 and the Relative off-rate (initial dissociation rate, normalised to trastuzumab) (fold relative to trastuzumab) turned out to be 1.6. Also, in experiment [4], the ka is 39800 M⁻¹ s⁻¹ and the kd came to 0.0721 s⁻¹.

In the case of trastuzumab-EML L309E;Q311M;M428L, in [3], the Relative on-rate (initial association rate, normalised to trastuzumab) (fold relative to trastuzumab) worked out at 1.47 and the Relative off-rate (initial dissociation rate, normalised to trastuzumab) (fold relative to trastuzumab) was determined as 1.5. In [4], the ka turned out to be 28500 M⁻¹ s⁻¹ and the kd was determined as 0.0475 s⁻¹.

One may read the Kd as a measure of binding affinity in units of concentration. Read a high Kd as lower affinity. By koff is commonly meant the first-order rate constant of dissociation. As a reminder, the kon is a measure of how fast the partners come together. Turning to “human neonatal Fc receptor, His-tagged (hFcRn-His) (from UniProt P55899 24-297; P61769 21-119)”, the dissociation constant Kd in experiment [5] was 4360 nM; in experiment [6], 1800 nM; in [7], 1670 nM; in [8] it was 1810 nM; in experiment [9], 878 nM. In addition, the dissociation rate constant (koff) amounted to 0.0645 s⁻¹ in [6], 0.0475 s⁻¹ in [7], 0.0721 s⁻¹ in experiment [8] and 0.0555 s⁻¹ in experiment [9]. For the same substance, the on-rate constant (kon) in experiment [6] was determined as 35700 M⁻¹ s⁻¹; in experiment [7] it was 28500 M⁻¹ s⁻¹; in experiment [8], 39800 M⁻¹ s⁻¹; in experiment [9], 63200 M⁻¹ s⁻¹.

Turning to trastuzumab-DHS L309D;Q311H;N434S, in experiment [3], the Relative on-rate (initial association rate, normalised to trastuzumab) (fold relative to trastuzumab) is 1.81 and the Relative off-rate (initial dissociation rate, normalised to trastuzumab) (fold relative to trastuzumab) is 1.83. In [4], the ka came out at 35700 M⁻¹ s⁻¹ and the kd is 0.0645 s⁻¹.

Regarding trastuzumab-YML L309Y;Q311M;M428L, in [3], the Relative on-rate (initial association rate, normalised to trastuzumab) (fold relative to trastuzumab) was 2.1 and the Relative off-rate (initial dissociation rate, normalised to trastuzumab) (fold relative to trastuzumab) was 1.74. Moreover, in experiment [4], the ka amounted to 63200 M⁻¹ s⁻¹ and the kd was 0.0555 s⁻¹.

In [2], “trastuzumab-DHS (L309D/Q311H/N434S) (antibody)” had an average of relative on- and off-rate of 1.82 fold; a relative initial off-rate at pH 7.4 (against trastuzumab) of 1.83 fold; a relative initial on-rate at pH 6.0 (against trastuzumab) of 1.81 fold.

For the substance “trastuzumab-YML (L309Y/Q311M/M428L) (antibody)”, in [10], the serum half-life t1/2 (terminal, beta-phase) in hFcRn transgenic mice (Tg276 hemizygous), single i.v. bolus 5 mg/kg, n = 3 was determined as 13.5 days. In [1], this substance registered a pH at elution from the FcRn affinity column of 8.09 pH and a retention time on the pH-gradient FcRn affinity column of 51.2 min. In [2], the average of relative on- and off-rate was determined as 1.92 fold; the relative initial off-rate at pH 7.4 (against trastuzumab) came to 1.74 fold; the relative initial on-rate at pH 6.0 (against trastuzumab) is 2.1 fold.

In experiment [1], trastuzumab (wild-type Fc) (antibody) had a pH at elution from the FcRn affinity column of 7.65 pH and a retention time on the pH-gradient FcRn affinity column of 40.6 min. In experiment [2], this substance displayed an average of relative on- and off-rate of 1 fold; a relative initial off-rate at pH 7.4 (against trastuzumab) of 1 fold; a relative initial on-rate at pH 6.0 (against trastuzumab) of 1 fold.

In [1], “trastuzumab-PFc29 (Q311R/M428L) (antibody)” returned a pH at elution from the FcRn affinity column of 8.05 pH and a retention time on the pH-gradient FcRn affinity column of 50.2 min. Besides, in experiment [2], the average of relative on- and off-rate worked out at 1.77 fold; the relative initial off-rate at pH 7.4 (against trastuzumab) amounted to 1.6 fold; the relative initial on-rate at pH 6.0 (against trastuzumab) worked out at 1.94 fold.

In [3], trastuzumab (wild-type human IgG1 Fc) returned a Relative on-rate (initial association rate, normalised to trastuzumab) (fold relative to trastuzumab) of 1 and a Relative off-rate (initial dissociation rate, normalised to trastuzumab) (fold relative to trastuzumab) of 1.
